Consider three substances from paper PMC5433087.

pKd: −log10 of the molar value.

The assay deals with HER3 (Human, His-tagged; Sino Biological) (human) (UniProt P21860). Nature of the assay: SPR.
Sequence of UniProt P21860 (P21860 20-643): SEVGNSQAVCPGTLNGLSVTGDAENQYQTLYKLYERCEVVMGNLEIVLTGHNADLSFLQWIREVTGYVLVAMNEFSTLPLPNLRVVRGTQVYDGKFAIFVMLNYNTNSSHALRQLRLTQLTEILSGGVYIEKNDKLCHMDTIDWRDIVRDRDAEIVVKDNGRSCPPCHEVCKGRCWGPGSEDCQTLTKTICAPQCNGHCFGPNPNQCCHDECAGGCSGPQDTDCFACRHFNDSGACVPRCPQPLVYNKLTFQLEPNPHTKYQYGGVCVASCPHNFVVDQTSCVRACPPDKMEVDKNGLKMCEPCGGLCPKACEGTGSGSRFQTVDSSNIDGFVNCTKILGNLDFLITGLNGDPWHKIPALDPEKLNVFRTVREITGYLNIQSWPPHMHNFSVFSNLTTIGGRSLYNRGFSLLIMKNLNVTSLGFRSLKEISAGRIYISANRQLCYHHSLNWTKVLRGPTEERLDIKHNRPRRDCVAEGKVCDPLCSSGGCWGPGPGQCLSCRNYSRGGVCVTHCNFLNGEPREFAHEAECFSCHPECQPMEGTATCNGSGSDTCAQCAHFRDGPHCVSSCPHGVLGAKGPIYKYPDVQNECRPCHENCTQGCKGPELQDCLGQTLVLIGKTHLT
A word on the pKd: it is the Kd on a negative log10 scale, so that one unit is a factor of ten. Take “trivalent HER3 affibody (three Z_(05413) domains joined by spacers of three repeat units) (designed binder)”: the pKd is 8.63. As for “bivalent HER3 affibody (two Z_(05413) domains joined by a spacer of three repeat units) (designed binder)”, the figure is 9.49; as for “monovalent HER3 affibody (Z_(05413) affibody) (designed binder)”, 9.50.
